Laboratory results from the supplement of paper PMC10201428.
± gives the standard deviation of the averaged measurements.

Experiments:
[1] = system: VchCAST RNA-guided transposition machinery (E. coli BL21(DE3) host, lacZ target); assay: relative integration efficiency (T-RL orientation) vs wild-type transposon end (log2 (normalized fold change)); transposon end mutated: right end (5 bp flank + 75 bp right end); higher = more efficient transposition
Method in brief: (§1)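 Barcoded pools of 1549 left-end or 1849 right-end transposon variants were cloned into a pUC57 mini-transposon donor. Each pool was co-transformed with a T7-driven effector plasmid (CRISPR array, tniQ-cas8-cas7-cas6, tnsA-tnsB-tnsC) into E. coli BL21(DE3) and plated with 0.1 mM IPTG at 37°C for 18 h. Input plasmids and genomic integration junctions were PCR-amplified and Illumina-sequenced, with two biological output replicates and four wild-type barcodes as reference. Relative integration efficiency is output/input barcode abundance fold change, normalised to wild-type barcodes and log-transformed.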

[2] = system: VchCAST RNA-guided transposition machinery (E. coli BL21(DE3) host, lacZ target); assay: relative integration efficiency (T-LR orientation) vs wild-type transposon end (log2 (normalized fold change)); transposon end mutated: right end (5 bp flank + 75 bp right end); higher = more efficient transposition
Method in brief: as §1

| Sequence | relative integration efficiency (log2) [1] | relative integration efficiency (log2) [2] |
| --- | --- | --- |
| ACATTTGTTGATACAACCATAAAATCATCATTACCCCCATAAATTGATAATTATCACACCCAATTTAACTATAACGCTCTGATCATAGTCAGACCAACATTGCTACGACCCGTATTCGCACCGACAC | -4.04 ± 0.25 | -0.419 ± 0.52 |
| ACATTTGTTGATACAACCATAAAATCATCATTACCCCCATAAATTGATAATTATCACACCCCATTTAACTATAACGCTCTGATCATAGTCAGACCAACATTGCTACGACCCGTATTCGCACCGACAC | -3.71 ± 0.07 | -0.211 ± 0.014 |
| ACATTTGTTGATACAACCATAAAATCATCATTACCCCCATAAATTGATAATTATCCCACCCAATTTAACTATAACGCTCTGATCATAGTCAGACCAACATTGCTACGACCCGTATTCGCACCGACAC | -3.815 ± 0.027 | 0.215 ± 0.23 |
| ACATTTGTTGATACAACCATAAAATCATCATTACCCCCATAAATTGATAATTATCCCACCCCATTTAACTATAACGCTCTGATCATAGTCAGACCAACATTGCTACGACCCGTATTCGCACCGACAC | -3.69 ± 0.077 | -0.0125 ± 0.058 |
| ACATTTGTTGATACAACCATAAAATCATCATTACCCCCATCAATTGATAATTATCACACCCAATTTAACTATAACGCTCTGATCATAGTCAGACCAACATTGCTACGACCCGTATTCGCACCGACAC | -5.41 ± 0.15 | -1.24 ± 0.5 |
| ACATTTGTTGATACAACCATAAAATCATCATTACCCCCATCAATTGATAATTATCACACCCCATTTAACTATAACGCTCTGATCATAGTCAGACCAACATTGCTACGACCCGTATTCGCACCGACAC | -5.76 ± 0.07 | -1.95 ± 0.53 |
| ACATTTGTTGATACAACCATAAAATCATCATTACCCCCATCAATTGATAATTATCCCACCCAATTTAACTATAACGCTCTGATCATAGTCAGACCAACATTGCTACGACCCGTATTCGCACCGACAC | -5.47 ± 0.095 | -1.26 ± 0.14 |
| ACATTTGTTGATACAACCATAAAATCATCATTACCCCCATCAATTGATAATTATCCCACCCCATTTAACTATAACGCTCTGATCATAGTCAGACCAACATTGCTACGACCCGTATTCGCACCGACAC | -5.09 ± 0.14 | -1.6 ± 0.036 |
| ACATTTGTTGATACAACCATAAAATCATCATTCACCCATAAATTGATAATTATCACACCCACATTTAACTATAACGCTCTGATCATAGTCAGACCAACATTGCTACGACCCGTATTCGCACCGACAC | -5.68 ± 0.095 | -1.73 ± 0.67 |
| ACATTTGTTGATACAACCATAAAATCATCATTCACCCCTAAATTGATAATTATCACACCCACATTTAACTATAACGCTCTGATCATAGTCAGACCAACATTGCTACGACCCGTATTCGCACCGACAC | -5.66 ± 0.14 | -1.37 ± 0.066 |
| ACATTTGTTGATACAACCATAAAATCATTATTACACCCATTAATTGATAATTATCACACCCAATTTAACTATAACGCTCTGATCATAGTCAGACCAACATTGCTACGACCCGTATTCGCACCGACAC | -3.73 ± 0.33 | 0.129 ± 0.18 |
| ACATTTGTTGATACAACCATAAAATCTATATTACACCCATAAATTGATAATTATCACACCCATAAATTGATATTGCCTCTGATCATAGTCAGACCAACATTGCTACGACCCGTATTCGCACCGACAC | -1.55 ± 0.21 | -1.85 ± 0.057 |
| ACATTTGTTGATACAACCATAAAATCTTAATTACACCCATAAATTGATAATTATCACACCCATAAATTGATATTGCCTCTGATCATAGTCAGACCAACATTGCTACGACCCGTATTCGCACCGACAC | -1.973 ± 0.011 | -1.09 ± 0.22 |
| ACATTTGTTGATACAACCATAAAATGAAAATTACACCCATAAATTGAAAATTATCACACCCATAAATTGAAATTGCCTCTGATCATAGTCAGACCAACATTGCTACGACCCGTATTCGCACCGACAC | -1.13 ± 0.26 | 0.0682 ± 0.25 |
| ACATTTGTTGATACAACCATAAAATGAATATTACACCCATAAATTGATAATTATCACACCCATAAATTGATATTGCCTCTGATCATAGTCAGACCAACATTGCTACGACCCGTATTCGCACCGACAC | -0.772 ± 0.072 | -0.52 ± 0.4 |
| ACATTTGTTGATACAACCATAAAATGAATTAATCACCCATAAATTGAATTAATTCACACCCATAAATTGAATAACGCTCTGATCATAGTCAGACCAACATTGCTACGACCCGTATTCGCACCGACAC | -2.34 ± 0.14 | -1.25 ± 0.054 |
| ACATTTGTTGATACAACCATAAAATGAATTATACACCCATAAATTGATAATTATCACACCCATAAATTGATATTGCCTCTGATCATAGTCAGACCAACATTGCTACGACCCGTATTCGCACCGACAC | -0.7 ± 0.18 | -0.0536 ± 0.3 |
| ACATTTGTTGATACAACCATAAAATGAGAATTACACCCATAAATTGAGAATTATCACACCCATAAATTGAGATTGCCTCTGATCATAGTCAGACCAACATTGCTACGACCCGTATTCGCACCGACAC | -1.04 ± 0.13 | -0.085 ± 0.14 |

| Sequence | relative integration efficiency (log2) [1] | relative integration efficiency (log2) [2] |
| --- | --- | --- |
| ACATTTGTTGATACAACCATAAAATGAGCATTACACCCATAAATTGATAATTATCACACCCATAAATTGATATTGCCTCTGATCATAGTCAGACCAACATTGCTACGACCCGTATTCGCACCGACAC | -0.394 ± 0.049 | -0.621 ± 0.017 |
| ACATTTGTTGATACAACCATAAAATGAGCCGGCACAAACGCCCGGTCGCCGGCGACACAAACGCCCGGTCGCGGTAAGAGGATCATAGTCAGACCAACATTGCTACGACCCGTATTCGCACCGACAC | -3.42 ± 0.22 | -0.24 ± 0.25 |
| ACATTTGTTGATACAACCATAAAATGAGCCGGCCACCCATAAATTGAGCCGGCTCACACCCATAAATTGAGCGGTACTCTGATCATAGTCAGACCAACATTGCTACGACCCGTATTCGCACCGACAC | -4.23 ± 0.084 | -1.65 ± 0.23 |
| ACATTTGTTGATACAACCATAAAATGAGCCGTACACCCATAAATTGATAATTATCACACCCATAAATTGATATTGCCTCTGATCATAGTCAGACCAACATTGCTACGACCCGTATTCGCACCGACAC | -0.359 ± 0.21 | -0.26 ± 0.5 |
| ACATTTGTTGATACAACCATAAAATGATAAAAACACCCATAAATTGATAATTATCACACCCATAAATTGATATTGCCTCTGATCATAGTCAGACCAACATTGCTACGACCCGTATTCGCACCGACAC | -0.347 ± 0.089 | -0.253 ± 0.4 |
| ACATTTGTTGATACAACCATAAAATGATAAAATCACCCATAAATTGATAAAATTCACACCCATAAATTGATATACGCTCTGATCATAGTCAGACCAACATTGCTACGACCCGTATTCGCACCGACAC | -1.05 ± 0.087 | -0.368 ± 0.21 |
| ACATTTGTTGATACAACCATAAAATGATAAAATGACCCATAAATTGATAATTATCACACCCATAAATTGATATTGCCTCTGATCATAGTCAGACCAACATTGCTACGACCCGTATTCGCACCGACAC | -0.49 ± 0.13 | 0.143 ± 0.81 |
| ACATTTGTTGATACAACCATAAAATGATAAATACACCCATAAATTGATAAATATCACACCCATAAATTGATATAGCCTCTGATCATAGTCAGACCAACATTGCTACGACCCGTATTCGCACCGACAC | -0.443 ± 0.15 | 0.037 ± 0.84 |
| ACATTTGTTGATACAACCATAAAATGATAAATACACCCATAAATTGATAATAATGACACCGAATTTAACTATAACGCTCTGATCATAGTCAGACCAACATTGCTACGACCCGTATTCGCACCGACAC | -1.36 ± 0.43 | 2.26 ± 0.23 |
| ACATTTGTTGATACAACCATAAAATGATAAATACACCCATAAATTGATAATGATGACACCGAATTTAACTATAACGCTCTGATCATAGTCAGACCAACATTGCTACGACCCGTATTCGCACCGACAC | -0.862 ± 0.42 | 2.71 ± 0.18 |
| ACATTTGTTGATACAACCATAAAATGATAAATACACCCATAAATTGATAATTGTGACACCGAATTTAACTATAACGCTCTGATCATAGTCAGACCAACATTGCTACGACCCGTATTCGCACCGACAC | -0.896 ± 0.3 | 2.56 ± 0.14 |
| ACATTTGTTGATACAACCATAAAATGATAACACCCATAAATTGATAATTATCACACCCATAAATTGATATTGCCTCTGATCATAGTCAGACCAACATTGCTACGACCCGTATTCGCACCGACACTGA | -3.99 ± 0.2 | -1.25 ± 0.2 |
| ACATTTGTTGATACAACCATAAAATGATAAGGACACCCATAAATTGATAATTATCACACCCATAAATTGATATTGCCTCTGATCATAGTCAGACCAACATTGCTACGACCCGTATTCGCACCGACAC | -0.956 ± 0.034 | -0.358 ± 0.15 |
| ACATTTGTTGATACAACCATAAAATGATAAGGCAACCCATAAATTGATAATTATCACACCCATAAATTGATATTGCCTCTGATCATAGTCAGACCAACATTGCTACGACCCGTATTCGCACCGACAC | -0.5904 ± 0.00039 | -0.414 ± 0.36 |
| ACATTTGTTGATACAACCATAAAATGATAAGGCACAAACGCCCGGTCGCCGGCGACACAAACGCCCGGTCGCGGTAAGAGGATCATAGTCAGACCAACATTGCTACGACCCGTATTCGCACCGACAC | -2.28 ± 0.27 | 1.225 ± 0.01 |
| ACATTTGTTGATACAACCATAAAATGATAAGGCCACCCATAAATTGATAAGGCTCACACCCATAAATTGATATGTACTCTGATCATAGTCAGACCAACATTGCTACGACCCGTATTCGCACCGACAC | -1.42 ± 0.28 | -0.158 ± 0.46 |
| ACATTTGTTGATACAACCATAAAATGATAAGTACACCCATAAATTGATAAGTATCACACCCATAAATTGATATGGCCTCTGATCATAGTCAGACCAACATTGCTACGACCCGTATTCGCACCGACAC | -0.35 ± 0.029 | 0.407 ± 0.12 |
